Measurements from patent US20250263490A1 (VIB VZW, published 2025).

T1: E148R
T1 construct: also called human CI-M6PR Dom1-3His6 E148F
T1 chain: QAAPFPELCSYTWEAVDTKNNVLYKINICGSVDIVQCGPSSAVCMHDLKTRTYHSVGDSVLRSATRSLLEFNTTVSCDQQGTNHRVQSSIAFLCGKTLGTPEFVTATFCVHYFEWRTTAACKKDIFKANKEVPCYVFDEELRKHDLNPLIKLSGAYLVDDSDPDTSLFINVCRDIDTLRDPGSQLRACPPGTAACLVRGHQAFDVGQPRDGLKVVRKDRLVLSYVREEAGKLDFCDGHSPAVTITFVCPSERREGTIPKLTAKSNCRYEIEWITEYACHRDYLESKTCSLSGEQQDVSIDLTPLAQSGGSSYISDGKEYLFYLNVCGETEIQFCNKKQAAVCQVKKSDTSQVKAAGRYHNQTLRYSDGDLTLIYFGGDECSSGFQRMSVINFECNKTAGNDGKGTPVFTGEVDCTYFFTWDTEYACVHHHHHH

T2: E433R
T2 construct: also called human CI-M6PR Dom1-3His6 E433R
T2 chain: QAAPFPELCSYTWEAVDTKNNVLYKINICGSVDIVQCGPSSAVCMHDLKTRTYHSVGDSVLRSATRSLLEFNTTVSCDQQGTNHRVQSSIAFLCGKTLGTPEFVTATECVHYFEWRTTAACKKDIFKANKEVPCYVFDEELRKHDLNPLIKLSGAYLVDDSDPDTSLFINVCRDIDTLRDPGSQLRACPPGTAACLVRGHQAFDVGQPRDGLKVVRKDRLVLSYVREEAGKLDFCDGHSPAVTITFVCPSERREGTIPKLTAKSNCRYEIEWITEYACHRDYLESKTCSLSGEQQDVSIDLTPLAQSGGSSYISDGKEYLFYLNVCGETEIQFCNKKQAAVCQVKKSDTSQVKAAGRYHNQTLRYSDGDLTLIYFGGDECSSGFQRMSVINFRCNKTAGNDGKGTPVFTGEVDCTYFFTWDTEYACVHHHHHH


Columns and labels:
[1] = target: T3, recombinant human domain 1-3His6 of the cation-independent mannose-6-phosphate receptor (human, UniProt P11717 41-467); assay: BLI exp 2, dissoc pH 5.5
T3 construct: Biotinylated (NHS-PEG4-biotin) for BLI; Glycosylated; also called hDom1-3His6; hCI-M6PRD1-D3
Description: For each of the 11 anti-CI-M6PR VHHs, a biolayer interferometry (BLI) experiment was performed in which the hDom₁₋₃His₆ was biotinylated and coupled to streptavidin biosensor tips. Afterwards, the tips were incubated with serially diluted VHHs during the association phase and dissociation was performed at pH 7.4. Similarly, dissociation was performed at pH 7.0, pH 6.0 and pH 5.0 as well after regeneration of the biosensor tips. […] The anti-CI-M6PR antibody (clone 2G11) and GBP were used as positive and negative controls, respectively.
Analysis of the binding kinetics was performed using an Octet Red96 (FortéBio) device with Streptavidin SA Biosensor tips (VWR, 733-2145). To this end, 1 mL of hCI-M6PR_D1-D3 (0.5 mg/mL in 50 mM MES, 150 mM NaCl, pH 6.5) was incubated at room temperature for 30 minutes with a two-fold molar excesses of EZ-Link™ NHS-PEG₄-Biotin (Thermo Fischer, A39259) and NaHCO₃ (100 mM, pH 8.3). Biotinylated hCIMPR_D1-D3 was purified using a Zeba spin desalting column (Thermo Fischer, 89890) and protein concentration was calculated by measuring the absorbance at 280 nm (extinction coefficient 50320 M¹ cm⁻¹). Two-fold biotin-labelled antigen was loaded on the tips (2.5 μg/mL) and subsequently dipped into a particular anti-CI-M6PR VHH-containing solution (ranging from 0-100 nM). Serial VHH dilutions were made in kinetics buffer (0.2 M Na₂HPO₄, 0.1 M Na⁺ citrate, 0.01% BSA, 0.002% Tween20, pH 7.4). After association (100 sec), dissociation was conducted (500 sec) for each anti-CI-M6PR VHH in the kinetics buffer, followed by biosensor regeneration in glycine (10 mM, pH 3) and neutralisation. The same cycle was repeated with dissociation performed in kinetics buffer of pH 7.0, 6.5, 6.0, 5.5, and 5.0.
A reference well and reference sensors were subtracted from ligand sensors afterwards and Savitsky-Golay filtering was applied on the data. Fitting of the data was performed using a 1:1 model, grouped per dissociation pH.

[2] = target: T3, recombinant human domain 1-3His6 of the …; assay: ELISA on coated human CI-M6PRD1-D3, non-linear fit of the curves of FIG 36A
Description: FIGS. 36A-C. […] (FIG. 36A) ELISA assay in which each construct was serially diluted and incubated on human CI-M6PR_D1-D3 and the detected absorbance (Abs) at 450 nm was set out in function of concentration. […] Graphs created in Graphpad Prism 9.0.0.

[3] = target: human cation-independent mannose-6-phosphate receptor, native, on cells (human, UniProt P11717 41-2491); assay: cell-based or functional assay
[4] = target: T3, recombinant human domain 1-3His6 of the …; assay: BLI exp 2, dissoc pH 6.5
[5] = target: T3, recombinant human domain 1-3His6 of the …; assay: ELISA on coated antigen (100 ng), anti-VHH-HRP, A450
Description: (§1) To determine the effect of site-directed mutations, an ELISA was performed. To this end, 100 ng of each successfully purified mutant was coated per well on Nunc Maxisorp plates in 50 mM MES, 150 mM NaCl, pH 6.5 buffer overnight at 4° C. […] Coating-only controls were included for background correction. […] Reactions were stopped after five minutes using a 2N H₂SO₄ solution and plates were read at 450 nm, with a 655 nm background correction. Data were analyzed using the GraphPad Prism 9 software.

[6] = target: T1, E148R; assay: ELISA on coated antigen (100 ng; labelled E148R on the sheet, E148F in the text), anti-VHH-HRP, A450
Description: as §1

[7] = target: T2, E433R; assay: ELISA on coated antigen (100 ng), anti-VHH-HRP, A450
Description: as §1

| Binder | koff [1] [s⁻¹] | kon [1] [M⁻¹ s⁻¹] | EC50 [2] [nM] | internalisation rate (live-cell imaging of AF488-VHH on MCF7 cells) [3] [summed AF-voxels/minute] | koff [4] [s⁻¹] | kon [4] [M⁻¹ s⁻¹] | EC50 (read off the curve) [5] [nM] | EC50 (read off the curve) [6] [nM] | EC50 (read off the curve) [7] [nM] |
| --- | --- | --- | --- | --- | --- | --- | --- | --- | --- |
| anti-CI-M6PR VHH1 (VHH, His6-tagged; made in Pichia pastoris, later also in E. coli WK6) VHH: QVQLQESGGGLVQPGGSLRLSCVASGFTFDRYWMNWLRQIPGKEIEWVSTINTGGTGTYYDDSVKGRFSISRDDAKNTLYLTMNSLKTEDTAVYYCARGATYYRGNSAIRGQGTQVTVSS | 0.04 | 47000 | 19 | 1.38e+06 | 0.011 | 1.1e+06 | ~10 | – | – |
| anti-CI-M6PR VHH 1H11 (VHH, made in E. coli WK6, His-tag purified) VHH: QVQLQESGGGLVQPGGSLRLSCAASGIIFSDNRMDWYRQAPGKQREWVATLASYGWKTYADSVKDRFTISRDNAKNTVNLYMNSLQPEDTAVYYCNSGQYWGQGTQVTVSS | – | – | – | – | – | – | ~0.4 | ~9 | ~0.4 |
| anti-CI-M6PR VHH5 (VHH, His6-tagged; made in Pichia pastoris, later also in E. coli WK6) VHH: QVQLQESGGGLVQAGGSLKLSCAAAGRTFSRLAMGWFRQAPGKEREFVAAISENGDSIHYSDSVKGRFAVSRDNAKNTVYLQMNSLKPEDTAIYYCAADRAAYYCSGSGCYPSRAPAAASYDYWGQGTQVTVSS | – | – | 65 | 687000 | – | – | ~2 | ~2 | ~3 |

The remaining lines, values ahead:

| koff [1] [s⁻¹] | kon [1] [M⁻¹ s⁻¹] | EC50 [2] [nM] | internalisation rate (live-cell imaging of AF488-VHH on MCF7 cells) [3] [summed AF-voxels/minute] | koff [4] [s⁻¹] | kon [4] [M⁻¹ s⁻¹] | EC50 (read off the curve) [5] [nM] | EC50 (read off the curve) [6] [nM] | EC50 (read off the curve) [7] [nM] | Binder |
| --- | --- | --- | --- | --- | --- | --- | --- | --- | --- |
| 0.027 | 35000 | 0.45 | 1.26e+06 | 0.02 | 430000 | ~0.3 | – | – | anti-CI-M6PR VHH7 (VHH, His6-tagged (Pichia pastoris)) VHH: QVQLQESGGGLVQPGGSLRLSCAASGIIFSDNRMDWYRQAPGKQREWVATLASYGWKTYADSVKGRFTISRDNTKNTVYLRMNSLKPEDTAVYYCKASSPVLNDIWGQGTQVTVSS |
| 0.0025 | 1.9e+08 | 0.16 | 673000 | 0.0007 | 1.2e+06 | ~3 | ~3 | ~3 | anti-CI-M6PR VHH8 (VHH, His6-tagged (Pichia pastoris)) VHH: QVQLQESGGGLVQAGGSLRLSCEASGRTFNTYNWGWFRQAPGKEREFVAAIRWSSSKTSYADSVKGRFTISRDNAKNTIYLQMNSLKPEDTAVYYCAASIVDFTTNPSHFGSWGQGTQVTVSS |
